Laboratory results published in the RNAGym collection of RNA variant scans (doi:10.7554/elife.80360).

B1: HDV Ribozyme (parent)
chain: GGCCGGCAUGGUCCCAGCCUCCUCGCUGGCGCCGGCUGGGCAACAUUCCGAGGGGACCGUCCCCUCGGUAAUGGCGAAUGGGACCCA

Variants of: B1
Experiment: self-cleavage, relative activity (ratio to wild type); higher = more cleavage; co-transcriptional

Variant	self-cleavage
C36U A70G	0.969
C18U U60C	0.7
C41U C63G	0.739
U20C U23G	0
C18A G54U	0.135
C19A U23A	0.0302
C44G C66A	0.692
A56G C84U	0.973
C18U G55U	0.595
G5A C64U	0.359
G5A G29C	0.0755
C32A U37A	0.0627
C30A A45G	0.391
G2U G55C	0.116
G25C A45C	0.0875
G52U	0.938
G53C C61U	1.2
A42U A51G	0.508
G1A G17A	0.0811
G34A C36U	0.0623
G59U A78U	0.285
C24G C30U	0.0712
C49G G80U	0.123
A16C G28A	0.0449

Variant	self-cleavage
G17U U46G	0.0554
U65A U72A	0.636
G40U	0.717
U23C U47A	1.03
G2A A77G	0.141
G55U C61U	0.859
A16G G39A	0.404
G34C C64G	0.306
G34U G73C	0.289
C3G G80U	0.0801
G28U G76A	0.142
A42G A43U	0.185
U46G C48A	0.903
U46A A78G	0.277
G28U C84U	0.0489
G50U G76A	1.05
C14A G50U	0.467
C24U G59U	0.736
C36G A87U	0.153
G5U C14G	0.185
A51C G54A	0.716
A78U C86U	0.309
C19G G29U	0
U27C C85A	0.978

Variant	self-cleavage
C19A C49G	0.0733
C3A G39A	0.067
C13G A71C	0
C58U C63G	0.831
G2U U37C	0.0801
U12C C14G	0.229
C14A C15G	0.138
A16G G67C	0.849
A42C G82U	0.138
U37A C49G	0.201
C63A C64U	0.903
C32U C44A	0.243
A43C G82U	0.0545
C3G A77G	0.237
G10A C33A	0.111
C30A C32A	0.0627
C13A A83C	0.166
A45G G53U	0.884
G38C C85G	0.237
U60G A70C	0.95
A16U C75U	0.189
G17U G50A	0.466
G55C A83G	0.767
C44U G81C	0.0923

Variant	self-cleavage
U9C G54A	1.08
G39C A77U	0.121
G28U C66G	0.277
U46G G74A	0.365
U9A G68U	1.08
C22U A71G	0.506
C26G G34U	0.525
G39U A56U	0.819
A45G C57U	1.11
U12C G50U	0.332
C49U G81C	0.317
G74C A83U	0.185
A8C C18U	0.369
G35U U37A	0.155
C22A G59U	0.377
U27C C30U	0.426
U23G C85A	0.787
C32G U60A	0.131
A8U U9A	0.63
G59A U69C	0.846
C18G A70U	0.111
C41A C57G	1.04
C58U G76A	1.08
U65A U79A	0.727

Variant	self-cleavage
C44U C58A	1.07
G2U G38U	0.0126
G10A G35C	0.1
G11C G74U	0.0963
U12A G81C	0.0723
U37C G38U	0.0773
G59C G76C	1.19
G50A U60G	0.514
G34A U72C	0.0692
G11U A42C	0.0308
G34U U79A	0.138
C24U C33U	0.354
C3U G80C	0.159
G5U G31U	0.277
C19G U37C	0.0594
G38U G73C	0.169
U60A U65C	1.08
A16U G35A	0.342
C15U C64U	0.902
G38A A78U	0.0297
G40C C41A	0.706
C30A A51C	0.612
G31U G54C	0.197
C36A G50U	0.0923

Variant	self-cleavage
C7U C19G	0.0528
G17A C24A	0.089
G5A C58A	0.253
G1U A42C	0.332
U12A C61G	0.158
C3G C48U	0.736
U20C G53A	0.122
G40A G53A	0.882
A56C C63U	1.01
G2U U69C	0
G34C A45G	0.147
C13A C41U	0.149
A56C C64A	0.911
C15G G38C	0.0639
U37G G55A	0.0831
U9C U79G	0.519
G55A C75A	0.254
G5C C24U	0.252
C19G G50C	0.0528
C24G G67A	0.119
U27G C57U	0.987
C15G C85A	0.748
U9G C18G	0
U20C C61G	0.128

Variant	self-cleavage
G2A C58G	0.151
G1C G74C	0
A56U U79C	0.429
C21U G82C	0.181
C21U G82A	0.0906
C26G C44G	0.554
G11A C21A	0.11
C18U C64U	0.751
U23C C62G	0.987
G54C C75A	0.138
U46C G80C	0.399
C4G A78G	0.0923
C62U G76U	1.06
G28U G29C	0.106
A43C G52A	0.511
C3G G10A	0.107
C24A U60C	0.702
A45U U69A	0.77
A16U A56C	0.906
A45U C49A	0.748
C4G G76C	0.494
G2U A16C	0
G76U C84G	1.05
